Laboratory results as given in paper PMC4372654.
Like-named read-outs stand apart in the source and are kept apart here.

T1: Orf16 (KfrA homolog), His-tagged (Paenibacillus popilliae ATCC 14706T …, UniProt A0A0D6CB60 1-326)
T1 sequence: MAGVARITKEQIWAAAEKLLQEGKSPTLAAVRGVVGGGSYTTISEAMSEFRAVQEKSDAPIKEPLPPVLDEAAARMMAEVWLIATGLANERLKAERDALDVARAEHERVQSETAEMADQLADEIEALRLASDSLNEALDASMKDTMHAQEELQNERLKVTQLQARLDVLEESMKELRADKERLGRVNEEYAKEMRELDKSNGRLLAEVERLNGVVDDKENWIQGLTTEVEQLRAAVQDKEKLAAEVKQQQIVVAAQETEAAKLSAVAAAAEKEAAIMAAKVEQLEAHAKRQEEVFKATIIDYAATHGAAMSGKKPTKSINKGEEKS

T2: Orf8 (KfrA homolog), His-tagged (Paenibacillus popilliae ATCC 14706T …, UniProt A0A0D6CAG5 1-327)
T2 sequence: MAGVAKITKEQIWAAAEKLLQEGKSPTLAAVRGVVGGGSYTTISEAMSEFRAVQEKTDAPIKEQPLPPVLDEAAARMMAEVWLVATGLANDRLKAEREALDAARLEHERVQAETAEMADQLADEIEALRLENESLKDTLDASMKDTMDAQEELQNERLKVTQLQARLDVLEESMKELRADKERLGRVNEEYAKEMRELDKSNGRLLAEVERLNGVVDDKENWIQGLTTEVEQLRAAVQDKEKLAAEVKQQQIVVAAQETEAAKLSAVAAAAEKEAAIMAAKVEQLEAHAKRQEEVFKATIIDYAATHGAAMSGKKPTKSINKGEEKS

B1: IR4 (dsDNA)
DNA 1: CATACTACATACAATATACAACATACTACAATATGGAGGGTG
DNA 2: GTACCACCCTCCATATTGTAGTATGTTGTATATTGTATGTAGTATGAGCT
B2: IR1 (dsDNA)
DNA 1: CATGAAAAAATCATG
DNA 2: GTACCATGATTTTTTCATGAGCT
B3: IR3 (dsDNA)
DNA 1: CATACTACATATTACATATTACATACTACATACTACAATATGGAGGGTG
DNA 2: GTACCACCCTCCATATTGTAGTATGTAGTATGTAATATGTAATATGTAGTATGAGCT

Legend:
Experiment in all cases: competition
[1] = molecular target: T1, Orf16 (KfrA homolog), His-tagged
[2] = molecular target: T2, Orf8 (KfrA homolog), His-tagged
[3] = molecular target: T1, Orf16 (KfrA homolog), His-tagged; remark: listed apart in the source

Binder | binding result [1] | binding result [2] | binding result [3]
B1 | binds | binds | –
B2 | – | – | no binding
B3 | binds | binds | –
